To fix the notation:
B1: Azoarcus group I ribozyme (parent)
chain: GUGCCUUGCGCCGGGAAACCACGCAAGGGAUGGUGUCAAAUUCGGCGAAACCUAAGCGCCCGCCCGGGCGUAUGGCAACGCCGAGCCAAGCUUCGGCGCCUGCGCCGAUGAAGGUGUAGAGACUAGACGGCACCCACCUAAGGCAAACGCUAUGGUGAAGGCAUAGUCCAGGGAGUGGCGAAAGUCACACAAACCGG

The variants in this data set derive from B1. Description: reverse-splicing fitness (ratio to wild type); higher = more active; in vitro selection; Mg2+ level not given. The method in brief: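 An in vitro group I ribozyme library with randomized positions was T7-transcribed and gel-purified. In triplicate, 10 pmol RNA in EPPS pH 7.5 was reacted with 50 pmoles of a 30-nt RNA substrate for 1 h at 37 °C across several added MgCl2 levels (1–48 mM), then stopped with EDTA. Products were reverse transcribed from a substrate-complementary primer, PCR-amplified and sequenced (HiSeq 4000). Fitness is a variant's read proportion after selection over that before, normalised to wild type.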
For the variant C82A A111U A120U A145C C150U C169G, the reverse-splicing fitness came out at 0.0029. With C82A A111U A120U A145C C150U C169U the figure was 0.00328; with C82A A111U A120U A145C C150U C169A, 0.00277; with C82A A111U A120G C150U C169G U176C, 0.0205.

Regarding C82A A111U A120G C150U C169G U176A, the reverse-splicing fitness came to 0.0175.

In the case of C82A A111U A120G C150U C169G U176G, the reverse-splicing fitness was 0.00517. In the case of C82A A111U A120G A145G C150U C169A U176G, the reverse-splicing fitness was found to be 0.00668. Regarding C82A A111U A120G A145G C150U C169A U176A, the reverse-splicing fitness worked out at 0.0144.

C82A A111U A120G A145G C150U C169A U176C: the reverse-splicing fitness worked out at 0.0165. For C82A A111U A120G A145U C150G C169G U176A, the reverse-splicing fitness was 0.00656. Consider C82A A111U A120G A145U C150G C169G U176G, for which the reverse-splicing fitness was found to be 0.00488. As to C82A A111U A120G A145U C150G C169G U176C, the reverse-splicing fitness turned out to be 0.00476. As to C82A A111U A120G A145G C150G C169A, the reverse-splicing fitness was determined as 0.0092. Regarding C82A A111U A120G A145G C150G C169U, the reverse-splicing fitness was determined as 0.00901. On to C82A A111U A120G A145G C150G C169G, for which the reverse-splicing fitness is 0.00797. In the case of C82A A111U A120G A145U C150G C169G, the reverse-splicing fitness was 0.00685. With C82A A111U A120G A145U C150G C169A the figure was 0.00884; with C82A A111U A120G A145U C150G C169U, 0.00845; with C82A A111U A120G A145U C150G C169U U176C, 0.0125. Turning to C82A A111U A120G A145U C150G C169U U176A, the reverse-splicing fitness came to 0.0104. As for C82A A111U A120G A145U C150G C169U U176G, the reverse-splicing fitness was 0.00545. For the variant C82A A111U A120G A145C C150U U176G, the reverse-splicing fitness was 0.00589. With C82A A111U A120G A145C C150U U176A the figure was 0.0105; with C82A A111U A120G A145C C150U U176C, 0.0114; with C82A A111U A120G A145U C150U U176G, 0.00672.

In the case of C82A A111U A120G A145U C150U U176C, the reverse-splicing fitness was 0.0151. Take C82A A111U A120G A145U C150U U176A: the reverse-splicing fitness worked out at 0.0102.

Consider C82A A111U A120U A145C C150G C169U, for which the reverse-splicing fitness is 0.00392. On to C82A A111U A120U A145C C150G C169G, for which the reverse-splicing fitness turned out to be 0.0039. Take C82A A111U A120U A145C C150G C169A: the reverse-splicing fitness amounted to 0.00347. For the variant C82A A111U A120G A145U C150A, the reverse-splicing fitness stood at 0.00949.

On to C82A A111U A120G A145U C150U, for which the reverse-splicing fitness came to 0.0134. As for C82A A111U A120G A145U C150G, the reverse-splicing fitness is 0.00799. For C82A A111U A120G A145G C150U, the reverse-splicing fitness came to 0.0133.

Consider C82A A111U A120G A145G C150G, for which the reverse-splicing fitness is 0.00699. As for C82A A111U A120G A145G C150A, the reverse-splicing fitness was 0.0095. With C82A A111U A120U A145C C150U U176G the figure was 0.00319; with C82A A111U A120U A145C C150U U176C, 0.00533. For C82A A111U A120U A145C C150U U176A, the reverse-splicing fitness turned out to be 0.00482. Regarding C82A A111U A120U A145G C150G C169A, the reverse-splicing fitness was found to be 0.00923. As to C82A A111U A120U A145G C150G C169U, the reverse-splicing fitness worked out at 0.00854.

Turning to C82A A111U A120U A145G C150G C169G, the reverse-splicing fitness came to 0.00757.

As to C82A A111U A120G C150U, the reverse-splicing fitness was 0.0133. For C82A A111U A120G C150A, the reverse-splicing fitness is 0.0106. Turning to C82A A111U A120G C150G, the reverse-splicing fitness amounted to 0.00697. Take C82A A111U A120U A145G C150G U176G: the reverse-splicing fitness was found to be 0.00434.

Regarding C82A A111U A120U A145G C150G U176C, the reverse-splicing fitness is 0.00894.

C82A A111U A120U A145G C150G U176A: the reverse-splicing fitness was 0.00697. With C82A A111U A120G A145G C150U C169G U176G the figure was 0.00517; with C82A A111U A120G A145G C150U C169G U176A, 0.0133; with C82A A111U A120G A145G C150U C169G U176C, 0.0178.

Regarding C82A A111U A120U A145G C150G C169G U176C, the reverse-splicing fitness was found to be 0.00639.

C82A A111U A120U A145G C150G C169G U176G: the reverse-splicing fitness amounted to 0.00413. With C82A A111U A120U A145G C150G C169G U176A the figure was 0.00885; with C82A A111U A120G C169G U176A, 0.0219.

Regarding C82A A111U A120G C169G U176C, the reverse-splicing fitness is 0.0234. As for C82A A111U A120G C169G U176G, the reverse-splicing fitness was 0.00439. As to C82A A111U A120G C150U U176G, the reverse-splicing fitness was 0.00825.

As for C82A A111U A120G C150U U176C, the reverse-splicing fitness was 0.0178. For C82A A111U A120G C150U U176A, the reverse-splicing fitness was determined as 0.0109. For the variant C82A A111U A120G A145G C150U C169U U176G, the reverse-splicing fitness was 0.00618. Regarding C82A A111U A120G A145G C150U C169U U176A, the reverse-splicing fitness stood at 0.0181. For the variant C82A A111U A120G A145G C150U C169U U176C, the reverse-splicing fitness was determined as 0.0156. Take C82A A111U A120G C150G C169U U176G: the reverse-splicing fitness came out at 0.00618. In the case of C82A A111U A120G C150G C169U U176C, the reverse-splicing fitness worked out at 0.0145. For the variant C82A A111U A120G C150G C169U U176A, the reverse-splicing fitness is 0.01.

With C82A A111U A120G C150G C169U, the reverse-splicing fitness was 0.00851. For C82A A111U A120G C150G C169G, the reverse-splicing fitness amounted to 0.00782.

As for C82A A111U A120G C150G C169A, the reverse-splicing fitness was determined as 0.00926.

In the case of C82A A111U A120U A145G C150A C169A U176A, the reverse-splicing fitness was determined as 0.0108.

C82A A111U A120U A145G C150A C169A U176G: the reverse-splicing fitness came out at 0.00392. For the variant C82A A111U A120U A145G C150A C169A U176C, the reverse-splicing fitness is 0.00627.

For C82A A111U A120G A145C U176A, the reverse-splicing fitness was found to be 0.0112. On to C82A A111U A120G A145C U176C, for which the reverse-splicing fitness came to 0.012. Regarding C82A A111U A120G A145C U176G, the reverse-splicing fitness came out at 0.00543. Take C82A A111U A120U A145G C150A C169G U176C: the reverse-splicing fitness came to 0.00688. As to C82A A111U A120U A145G C150A C169G U176A, the reverse-splicing fitness came to 0.0104. With C82A A111U A120U A145G C150A C169G U176G the figure was 0.003; with C82A A111U A120U A145G C150G C169U U176A, 0.00862.

Turning to C82A A111U A120U A145G C150G C169U U176C, the reverse-splicing fitness turned out to be 0.0089. For C82A A111U A120U A145G C150G C169U U176G, the reverse-splicing fitness was 0.00513. Take C82A A111U A120G A145U C150U C169A U176A: the reverse-splicing fitness amounted to 0.0139. With C82A A111U A120G A145U C150U C169A U176G the figure was 0.0057. As to C82A A111U A120G A145U C150U C169A U176C, the reverse-splicing fitness stood at 0.0139.

The record behind these values is the RNAGym collection of RNA variant scans (doi:10.1093/molbev/msab373).
